In publication PMC5557881 one finds degranulation of RBL-SX38 cells (β-hexosaminidase release) without antigen by peak B (IgE trimer) of NS1 mSPE-7 IgE, against unpurified Sigma SPE-7 IgE, stoichiometry N and degranulation of RBL-SX38 cells (β-hexosaminidase release) without antigen by component B of Sigma SPE-7 IgE, against unpurified Sigma SPE-7 IgE data, which are given here for two substances.

For test [1], the target named is mSPE-7 IgE from the NS1 hybridoma (mouse anti-dinitrophenyl IgE) (mouse). The settings on record: scale: % of the unpurified Sigma SPE-7 IgE's activity.
The target is the same in test [2]. The test is described as follows: SEC-MALLS; peak B of the Superdex 200 Increase fractionation of NS1 mSPE-7 IgE, run again on Superdex 200 Increase with inline light scattering and refractometer.
The target in test [3] is Sigma mSPE-7 IgE (commercial mouse monoclonal anti-dinitrophenyl IgE, SPE-7, from Sigma) (mouse). The settings on record: scale: % of the activity of the unpurified Sigma SPE-7 IgE.

As usually defined, the stoichiometry N is a count of units in the complex or per binding partner. In test [1], “mSPE-7 IgE from the NS1 hybridoma (mouse anti-dinitrophenyl IgE) (antibody)” yielded a degranulation of RBL-SX38 cells (β-hexosaminidase release) without antigen by peak B (IgE trimer) of NS1 mSPE-7 IgE, against unpurified Sigma SPE-7 IgE of 55. The same substance gave a stoichiometry N in test [2] of 3.
In test [3], “Sigma mSPE-7 IgE (commercial mouse monoclonal anti-dinitrophenyl IgE, SPE-7, from Sigma) (antibody)” returned a degranulation of RBL-SX38 cells (β-hexosaminidase release) without antigen by component B of Sigma SPE-7 IgE, against unpurified Sigma SPE-7 IgE of 65.
